Here are results for one molecule from PMC10622425.

The target of this experiment is M2 protein of human Influenza A virus A/WSN/33 (H1N1), wild type (Influenza A virus A/WSN/33 (H1N1)). Briefly: co-IP.

B1: human DHHC20 fused at its C-terminus to a myc-tag (enzyme)
chain: TLWRCCQRVVGWVPVLFITFVVVWSYYAYVVELCVFTIFGNEENGKTVVYLVAFHLFFVMFVWSYWMTIFTSPASPSKEFYLSNSEKERYEKEFSQERQQEILRRAARALPIYTTSASKTIRYCEKCQLIKPDRAHHCSACDSCILKMDHHCPWVNNCVGFSNYKFFLLFLLYSLLYCLFVAATVLEYFIKFWTNELTDTRAKFHVLFLFFVSAMFFISVLSLFSYHCWLVGKNRTTIESFRAPTFSYGPDGNGFSLGCSKNWRQVFGDEKKYWLLPIFSSLGDGCSFPTRLVGM
The molecule B1 came in with a percent of total DHHC20-myc co-precipitated of 1%.
